Test: soluble fraction after stress (log2 fold change); higher = more stays soluble; pooled small domains, quantitative proteomics
Conditions: stress: 75 degC
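Further: 20 min heating vs room temperature control held 20 min.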

Row | Sequence | soluble fraction (log2)
1 | HMNLQAYQSVLDKLNEEYGTTFRFPTEEELHEVGLTNTVDPRTATVSATEFEKYMRPIAERISQANL | -0.205
2 | HMNLSAREWTSADGSRTFQGELTGFQDGKVKVRRSDGKSLVFAIELLSESDQQFIKTNQLVIAKKDED | 0.0766
3 | HMNLYHALDQQGEVYLTIPPRQSGRGKVTLMIDGRVREMDAMTDGDALKTGSKVRVTEILDENALKVEAM | 0.215
4 | HMNMAEETLDTAAKILKAAEEEFMEKGYGNAKMMSIAARAGVSHSMLHYYYRSKGKLFQMIFDEKA | -1.41
5 | HMNMAEQGISLDSEAGKARFVSQALPLLKQLPDGVFKQRMLNQLADRVEVTADFIAQQLAQLKAA | -0.0979
6 | HMNMAVELEDGTQIFVFSEDGEFAGKRAVIADEEGRPTEENAPAGTHTLRDGRSIVVGEGGVIESVVET | -0.0672
7 | HMNMEYQKAINHIVQMVKDGQLIVGSKIPSERDLSESLGIGRNSTREAISILRGMGLVESRHGSGNYIAKD | -0.2
8 | HMNMGEKIRSLIGQFGVTSEDLKNLSVANLLIRMNQEAGDSKTKGILASLLETVNKAGVGNLTPDALGIK | -0.164
9 | HMNMLGEQVRNIRKSRGFTLKALAEQTGLSIGYISQIERNLTDPSLSTLRKISAALDVPTYLFMG | -2.13
10 | HMNMLGSNIKYLRNRHKLSQQELSEKLGVPRSSLSDYERGHTQVGLDSLIKLADIFDVKIDDLLRSNLSHR | -0.439
11 | HMNMPHEIDANFISSLGRLIDNHGKNYGDFQIFREMFLDYFPRFDELSSNNKEKINRRLYKFFETLFG | -2.09
12 | HMNMVEESVKKSSQWAVFEPNTISTWVKIQAMIENYLYQKWKEGALAGAKPEHAFFVKVGLGETM | 0.258
13 | HMNNEISINGNKIYFNKNISKVFIYDISGKLIKHKNNFNNNFIDLSEFNSAFYIIKALDINENYTTKKIFL | -1.69
14 | HMNNFTPEHLEKDIEGSLFFRRLKETAREEPGSLTVAQKDFIQMWHDQADGVYTLRQVFVQTAFDHVRSL | 0.315
15 | HMNNFTQSALDTIDGIGKRRKKLLLNHFGSVKLIENASIEDIKKIDGISDLVANKIYNFFNKN | -1.04
16 | HMNNGAEIGAEIRSLRKARGLTLEDLAAKIGRSVGYISQVERGISPLTIPNLKAIAEVLGVGINWFFRGEA | -1.15
17 | HMNNILNYTIAELMEILKIDDLETENVINSSNNLINKSINENNFPLAEFYEDVKNNLIEFIETFDS | -0.771
18 | HMNNLELSEEEKSVLTIIEKEGLIELDKLKTKLELSNKKWDKTLKFLTKNKLAKVVKNDNGLFVEL | -0.158
19 | HMNNLLEDIKARLMAQAEAGGHIDTETELAEHFGVTRYRIRKELDLLSQMGLLRRQPKNGIEVLTV | -0.171
20 | HMNNLNDIIEIIRIYAKNYARNNPSWNHSELINRIRDKALGEAEDYNIRLSEEDLALITELSLRGL | -0.713
21 | HMNNMVNTLLKLLAEQDVLRGIVRRFTPSSVFVFLQNEEVEVELPLQGRSLAPGQLVELTQEGASVALKRL | -0.936
22 | HMNNPLLDKVYQLMKQNNITEEEIVRAVAMKGYFPDDMKLGDYPDDFIDGVLIGAWDQIKQFIINNISPFK | -0.281
23 | HMNNSDIDITVGKNSISINNPNRTNIIIYSSNGMLIDSSKNASYKRNLPSGIYIVKSGSSTHKVIV | -0.905

Row | Sequence | soluble fraction (log2)
24 | HMNNTIKFFVSQDDDSTRLDVFLSKKIENLTRSNIKKFINLNNVKINKATINSPSKKVKLYDEIEIKFSS | -2.46
25 | HMNNTIKFSVDSQNSGKRLDIFLTENIKNYTRSFLKKLIENRQVKLNNNFIISPSERVKFKDQININILQ | -1.8
26 | HMNNVDIMGRMVYDDQHREVINFGKYKGVLVTEVLKKDPGYFSWIQQGDFPSDMKRIMMAIKLRM | -2.61
27 | HMNNVDQLIEQYKTLPGGLLPLLHAIKHALGYIPESTVGSIAKGFNLSRAEVHGVISFYHDFNTQP | 0.07
28 | HMNPAYTDSRMKTFLEELPVMKASLSQKHVTRFLVWQEYIGRHPDGYGKSQFFYHLKQNLVAAKG | -0.391
29 | HMNPDTERIREFVAVSLKNRKVATSGEIQNMIVKQFKNFKLKSHGYSNMKSFLSSIDKIQLNSNGKYSLK | -1.89
30 | HMNPEDDLLKAIIMKYFSNAQVQVDKNVIEYLLKRVDRDYQNLYNILEKINILSLQRKSKITTHLIRDIM | -0.414
31 | HMNPFLELTEREMDVLRLIAIGRNNQEIASELVISEKTVKTHITNIFSKLHFKDRTQAAAYAWQSGIVR | -1.73
32 | HMNPHGVAIIDVRKGKASTLRSLATSVRSLGEWDQLKIPIFNLESLTSLVLWHGLDAIVKEPESLQSNLIL | -0.513
33 | HMNPHIQFWSLLRRQPDYNSAYKDELKAMFVWQWSGEKTESLNEFYKTDPYRYKSMLMDMRNRAL | -3.33
34 | HMNPIDAHVGARVRLRRMLIGMSQEKLGELLGVTFQQIQKYEKGANRIGASRLYEVSRVLDVPVQYFFDDM | -3.66
35 | HMNPLDGTSVHPESYEAAEKLLKKQGFSLEDISGGKLTGLSLTIKDYARLAKELEIGEITLRDIVKELEK | -0.132
36 | HMNPLHYKAAHWVREGLFDDLKSFVELETRINSIFEEKDRGDVFEIFIEGYRSFSKWRALVLRLA | -0.365
37 | HMNPNEVQIPDLVNKTEEEAEQILKDLKLKLVVKSEEYDENIEKGKIISQDPTYKENYKIKEHSEISVIIS | 0.586
38 | HMNPNPFVNLSPRELEVLNLLFKGYGVLEISNELNIGQTTASTFKSRILKKTSTHSVVELIKLAEQYGFIP | -0.85
39 | HMNPNPYIVLGVDKSMPFGEIKKVYQRKRREFHPDSLVAKGLPDELLQKAQDKFIAIQEAYKSIEKNQV | 0.44
40 | HMNPNSIDEKLKLLSNREKEVAILVLKKLSYFEISEQLNITIRTVKAHTKNIYEKFNVSNRLAFLLLFN | -0.00667
41 | HMNPSAFSEYSFELLQSALLKKKIDENLSNQTIARDAGVSEAFVQKVLTNNVKRPSVKNRVRMISYLGLD | -1.47
42 | HMNPSFTMGTRIKEYIDAHYLEDLKLADIAEALHINLYYLSHTFKDLTGSSPMQYIIRRRIEE | -0.857
43 | HMNPSPYLRRHLSGDWGDLDEDDRRSNDAALASGEARLLSSYQVDPDLKLWIITEWDRSVTTLLLPSE | -0.0994
44 | HMNPTLPYGFAKRHGVILLEAGEVAVVGLREGADPAALIETRRALGRPLRVEPLDQATFDRRLSQVYA | -0.512
45 | HMNPTSLTFRSNVKDGKVYVDGIFKGSSDLDFDLPKGRHSIRIEKDGYVPFAKTINLIKALVIDFNMEKA | -2.02
46 | HMNPTTQIQYNLPKSEFVSIYIYDLIGNRVKSLINNYQDAGYKSVYWDAMNDLGQPVSAGMYIY | -0.0727

Row | Sequence | soluble fraction (log2)
47 | HMNQKKFIQADYEDRLFDHLAFEVKDMEKIISMMRREKFTITDEPFRLSPTGSLIAFVEDPDRTLIELIER | -0.41
48 | HMNQNAMIGAHIRNLRLAKKLTLKQLSDESGLSVGFLSQLERGMSSIAIDTLARLAHILGADLSSFF | -2.65
49 | HMNQRQLQIKQMLDVAQEVFLKQLKTVFPDVSEMTIRRDLILLEDMGYAVRTHGGAVSINRF | -2.42
50 | HMNQRTATVTASQLNVRSGPSTAYSIVHVLRQGETVEVIGESDGWYQIRLKDGRVGWSSGQYLNLN | -0.142
51 | HMNQSAVMAERMKQTKNRILQTAKEIFLEQGYKRTTIRQIVERSGITSGSIYNIFSSKEEIFSALVDDL | -3
52 | HMNQSYQLWIKDDELGPTPRSVGVLNEHFEVDPAALTNYDAELLRRATFGISLEPRGGSPTGQP | -0.192
53 | HMNQTPQISYSQFIADVRSGQIKDVNIDSDNRTIVGHKFSGEEFTTFSPGDNKLVDELLNYNVEIKTSP | 0.611
54 | HMNREEFLSQLERLLYDIPAQEREEALEYYNGYFDDAGKEKEAEVIQELGSPGKVAAIIKADLSG | 0.12
55 | HMNRETAISIYRILHILEEPYKEVFTLRTLGDLSYREIADIFGKQENWARVTYHRAKLKIREALVS | -2.23
56 | HMNRIFQERVVPAELDTLRADKVAASLFSDFSRNELAHWIKMGDLSINGGVKKAKDKLFEGDVLILDVEIV | -0.944
57 | HMNRKILVLLAGKEQITDNVSVMQSIHRYAFINTATINKAQHEILIEKEEIRQEALTLIHEFLK | -0.97
58 | HMNRKLKAKATREKIYKSAEKLFSQNDYNKVSVDAIVEAAGVAKGSFYVHFASKDALIAMLINDH | -0.448
59 | HMNRMKLLREQHNLSQTDLAKILNISRQSYNFYENEKRDPDTTMLIRIADFFNVSLDYLLGRTNN | -2.84
60 | HMNRPYVELFSGLGQEEAQQIVQKLQEDEVDYKFSGDSTILVKEDVVDQTKATLVQEGYPKS | 0.153
61 | HMNSEEINDVRKAVDELPTHLREILLLNYFQQMSYVQISDSLEIPLGTVKSRLHAAVAAFRNAWQSSQEE | -0.484
62 | HMNSEELFLRRIAQELIDQHGKDLHRIIVVLPSNRSKVFLKKFLFEILGSAFLTPQLMLLPQFVKSIV | -0.425
63 | HMNSFGWESFVGEKGVTDTDLRPSGWIVIKDKRLFALTEGTFIEKGVSVEILSVEGNRIVVREIS | -2.9
64 | HMNSHKIIDRLNQMITEKDLSEEMPAITEAFKNNERSAEDLKKYVAENLSKKLNAEEREKFVSLILQYRN | -0.0788
65 | HMNSILFAITKEGGVVYGGKPVGVNGVRPLVRRLLQSEEMPVILQVDEKADAGLVIRVIDESKLGGASKV | -0.372
66 | HMNSIQEQIEKYVYSLAPVTIERYESLKNGDIEDIEFEKLRKSISSKIINEKIDNKKQVAILSHLKKMYSD | -0.159
67 | HMNSKIIVESIIKSKNGIAKVADLVEGGVSRQSIKKMYADGYIKRISRGYYTLTSEPVSSDEQVISS | -0.645
68 | HMNSKMTYSELITSMENKEVESVKISSSGDVASVKLKNSKTEKEVKIPSLDSFMTYTEQYLKTGEITLEE | 0.0529
69 | HMNSKMTYSELVTNITNKEVESIKISSTGSTASVKLKNSKSEKEVNIPSLDSFMSYTEEYLKTGDFTLDEE | 0.586
